Measured values: patent US12679878B2, “CRF2 receptor agonists and their use in therapy” (SANOFI, priority 2020, dated 2026)
Starred links: 1 amine or outer side, 2 acyl side, 3 side chain; linkers in the order of their positions; H or OH if unused. Non-standard residues stand in square brackets, D forms with d. Groups on a side chain read outwards from the residue. No end group written: not given here. *: point of attachment. γGlu = O=C(O)[C@H](CCC(=O)[*:2])N[*:1]; Palmitoyl = CCCCCCCCCCCCCCCC(=O)*; Aib = CC(C)(N)C(=O)O

B1: SEQ ID NO: 30 (peptide)
peptide: IVLSLD[dV]PTKLK([γGlu-Palmitoyl])KKLLKQERKRKEREQAEKAARILERV-NH2
modifications: N-terminus assumed
SMILES: CCCCCCCCCCCCCCCC(=O)N[C@@H](CCC(=O)NCCCC[C@H](NC(=O)[C@H](CC(C)C)NC(=O)[C@H](CCCCN)NC(=O)[C@@H](NC(=O)[C@@H]1CCCN1C(=O)[C@H](NC(=O)[C@H](CC(=O)O)NC(=O)[C@H](CC(C)C)NC(=O)[C@H](CO)NC(=O)[C@H](CC(C)C)NC(=O)[C@@H](NC(=O)[C@@H](N)[C@@H](C)CC)C(C)C)C(C)C)[C@@H](C)O)C(=O)N[C@@H](CCCCN)C(=O)N[C@@H](CCCCN)C(=O)N[C@@H](CC(C)C)C(=O)N[C@@H](CC(C)C)C(=O)N[C@@H](CCCCN)C(=O)N[C@@H](CCC(N)=O)C(=O)N[C@@H](CCC(=O)O)C(=O)N[C@@H](CCCNC(=N)N)C(=O)N[C@@H](CCCCN)C(=O)N[C@@H](CCCNC(=N)N)C(=O)N[C@@H](CCCCN)C(=O)N[C@@H](CCC(=O)O)C(=O)N[C@@H](CCCNC(=N)N)C(=O)N[C@@H](CCC(=O)O)C(=O)N[C@@H](CCC(N)=O)C(=O)N[C@@H](C)C(=O)N[C@@H](CCC(=O)O)C(=O)N[C@@H](CCCCN)C(=O)N[C@@H](C)C(=O)N[C@@H](C)C(=O)N[C@@H](CCCNC(=N)N)C(=O)N[C@H](C(=O)N[C@@H](CC(C)C)C(=O)N[C@@H](CCC(=O)O)C(=O)N[C@@H](CCCNC(=N)N)C(=O)N[C@H](C(N)=O)C(C)C)[C@@H](C)CC)C(=O)O
B2: SEQ ID NO: 29 (peptide)
peptide: IVLSLD[dV]PTKLK([γGlu-Palmitoyl])KKLLKQERKRKERE[Aib]AEKAARILERV-NH2
modifications: N-terminus assumed
SMILES: CCCCCCCCCCCCCCCC(=O)N[C@@H](CCC(=O)NCCCC[C@H](NC(=O)[C@H](CC(C)C)NC(=O)[C@H](CCCCN)NC(=O)[C@@H](NC(=O)[C@@H]1CCCN1C(=O)[C@H](NC(=O)[C@H](CC(=O)O)NC(=O)[C@H](CC(C)C)NC(=O)[C@H](CO)NC(=O)[C@H](CC(C)C)NC(=O)[C@@H](NC(=O)[C@@H](N)[C@@H](C)CC)C(C)C)C(C)C)[C@@H](C)O)C(=O)N[C@@H](CCCCN)C(=O)N[C@@H](CCCCN)C(=O)N[C@@H](CC(C)C)C(=O)N[C@@H](CC(C)C)C(=O)N[C@@H](CCCCN)C(=O)N[C@@H](CCC(N)=O)C(=O)N[C@@H](CCC(=O)O)C(=O)N[C@@H](CCCNC(=N)N)C(=O)N[C@@H](CCCCN)C(=O)N[C@@H](CCCNC(=N)N)C(=O)N[C@@H](CCCCN)C(=O)N[C@@H](CCC(=O)O)C(=O)N[C@@H](CCCNC(=N)N)C(=O)N[C@@H](CCC(=O)O)C(=O)NC(C)(C)C(=O)N[C@@H](C)C(=O)N[C@@H](CCC(=O)O)C(=O)N[C@@H](CCCCN)C(=O)N[C@@H](C)C(=O)N[C@@H](C)C(=O)N[C@@H](CCCNC(=N)N)C(=O)N[C@H](C(=O)N[C@@H](CC(C)C)C(=O)N[C@@H](CCC(=O)O)C(=O)N[C@@H](CCCNC(=N)N)C(=O)N[C@H](C(N)=O)C(C)C)[C@@H](C)CC)C(=O)O
B3: SEQ ID NO: 26 (peptide)
peptide: IVLSLD[dV]PTKLK([γGlu-Palmitoyl])KKLLKQERKRKERE[Aib]AEKNARILERV-NH2
modifications: N-terminus assumed
SMILES: CCCCCCCCCCCCCCCC(=O)N[C@@H](CCC(=O)NCCCC[C@H](NC(=O)[C@H](CC(C)C)NC(=O)[C@H](CCCCN)NC(=O)[C@@H](NC(=O)[C@@H]1CCCN1C(=O)[C@H](NC(=O)[C@H](CC(=O)O)NC(=O)[C@H](CC(C)C)NC(=O)[C@H](CO)NC(=O)[C@H](CC(C)C)NC(=O)[C@@H](NC(=O)[C@@H](N)[C@@H](C)CC)C(C)C)C(C)C)[C@@H](C)O)C(=O)N[C@@H](CCCCN)C(=O)N[C@@H](CCCCN)C(=O)N[C@@H](CC(C)C)C(=O)N[C@@H](CC(C)C)C(=O)N[C@@H](CCCCN)C(=O)N[C@@H](CCC(N)=O)C(=O)N[C@@H](CCC(=O)O)C(=O)N[C@@H](CCCNC(=N)N)C(=O)N[C@@H](CCCCN)C(=O)N[C@@H](CCCNC(=N)N)C(=O)N[C@@H](CCCCN)C(=O)N[C@@H](CCC(=O)O)C(=O)N[C@@H](CCCNC(=N)N)C(=O)N[C@@H](CCC(=O)O)C(=O)NC(C)(C)C(=O)N[C@@H](C)C(=O)N[C@@H](CCC(=O)O)C(=O)N[C@@H](CCCCN)C(=O)N[C@@H](CC(N)=O)C(=O)N[C@@H](C)C(=O)N[C@@H](CCCNC(=N)N)C(=O)N[C@H](C(=O)N[C@@H](CC(C)C)C(=O)N[C@@H](CCC(=O)O)C(=O)N[C@@H](CCCNC(=N)N)C(=O)N[C@H](C(N)=O)C(C)C)[C@@H](C)CC)C(=O)O
B4: SEQ ID NO: 27 (peptide)
peptide: IVLSLD[dV]PTKLK([γGlu-Palmitoyl])KKLLKQERKRKEREQAEKNARILERV-NH2
modifications: N-terminus assumed
SMILES: CCCCCCCCCCCCCCCC(=O)N[C@@H](CCC(=O)NCCCC[C@H](NC(=O)[C@H](CC(C)C)NC(=O)[C@H](CCCCN)NC(=O)[C@@H](NC(=O)[C@@H]1CCCN1C(=O)[C@H](NC(=O)[C@H](CC(=O)O)NC(=O)[C@H](CC(C)C)NC(=O)[C@H](CO)NC(=O)[C@H](CC(C)C)NC(=O)[C@@H](NC(=O)[C@@H](N)[C@@H](C)CC)C(C)C)C(C)C)[C@@H](C)O)C(=O)N[C@@H](CCCCN)C(=O)N[C@@H](CCCCN)C(=O)N[C@@H](CC(C)C)C(=O)N[C@@H](CC(C)C)C(=O)N[C@@H](CCCCN)C(=O)N[C@@H](CCC(N)=O)C(=O)N[C@@H](CCC(=O)O)C(=O)N[C@@H](CCCNC(=N)N)C(=O)N[C@@H](CCCCN)C(=O)N[C@@H](CCCNC(=N)N)C(=O)N[C@@H](CCCCN)C(=O)N[C@@H](CCC(=O)O)C(=O)N[C@@H](CCCNC(=N)N)C(=O)N[C@@H](CCC(=O)O)C(=O)N[C@@H](CCC(N)=O)C(=O)N[C@@H](C)C(=O)N[C@@H](CCC(=O)O)C(=O)N[C@@H](CCCCN)C(=O)N[C@@H](CC(N)=O)C(=O)N[C@@H](C)C(=O)N[C@@H](CCCNC(=N)N)C(=O)N[C@H](C(=O)N[C@@H](CC(C)C)C(=O)N[C@@H](CCC(=O)O)C(=O)N[C@@H](CCCNC(=N)N)C(=O)N[C@H](C(N)=O)C(C)C)[C@@H](C)CC)C(=O)O
B5: SEQ ID NO: 31 (peptide)
peptide: IVLSLD[dV]PTKLK([γGlu-Palmitoyl])QKLLKQERQRKEREQAEKN[Aib]RILERV-NH2
modifications: N-terminus assumed
SMILES: CCCCCCCCCCCCCCCC(=O)N[C@@H](CCC(=O)NCCCC[C@H](NC(=O)[C@H](CC(C)C)NC(=O)[C@H](CCCCN)NC(=O)[C@@H](NC(=O)[C@@H]1CCCN1C(=O)[C@H](NC(=O)[C@H](CC(=O)O)NC(=O)[C@H](CC(C)C)NC(=O)[C@H](CO)NC(=O)[C@H](CC(C)C)NC(=O)[C@@H](NC(=O)[C@@H](N)[C@@H](C)CC)C(C)C)C(C)C)[C@@H](C)O)C(=O)N[C@@H](CCC(N)=O)C(=O)N[C@@H](CCCCN)C(=O)N[C@@H](CC(C)C)C(=O)N[C@@H](CC(C)C)C(=O)N[C@@H](CCCCN)C(=O)N[C@@H](CCC(N)=O)C(=O)N[C@@H](CCC(=O)O)C(=O)N[C@@H](CCCNC(=N)N)C(=O)N[C@@H](CCC(N)=O)C(=O)N[C@@H](CCCNC(=N)N)C(=O)N[C@@H](CCCCN)C(=O)N[C@@H](CCC(=O)O)C(=O)N[C@@H](CCCNC(=N)N)C(=O)N[C@@H](CCC(=O)O)C(=O)N[C@@H](CCC(N)=O)C(=O)N[C@@H](C)C(=O)N[C@@H](CCC(=O)O)C(=O)N[C@@H](CCCCN)C(=O)N[C@@H](CC(N)=O)C(=O)NC(C)(C)C(=O)N[C@@H](CCCNC(=N)N)C(=O)N[C@H](C(=O)N[C@@H](CC(C)C)C(=O)N[C@@H](CCC(=O)O)C(=O)N[C@@H](CCCNC(=N)N)C(=O)N[C@H](C(N)=O)C(C)C)[C@@H](C)CC)C(=O)O
B6: SEQ ID NO: 28 (peptide)
peptide: IVLSLD[dV]PTKLK([γGlu-Palmitoyl])KKLLKQERKRKEREKAEKAARILERV-NH2
modifications: N-terminus assumed
SMILES: CCCCCCCCCCCCCCCC(=O)N[C@@H](CCC(=O)NCCCC[C@H](NC(=O)[C@H](CC(C)C)NC(=O)[C@H](CCCCN)NC(=O)[C@@H](NC(=O)[C@@H]1CCCN1C(=O)[C@H](NC(=O)[C@H](CC(=O)O)NC(=O)[C@H](CC(C)C)NC(=O)[C@H](CO)NC(=O)[C@H](CC(C)C)NC(=O)[C@@H](NC(=O)[C@@H](N)[C@@H](C)CC)C(C)C)C(C)C)[C@@H](C)O)C(=O)N[C@@H](CCCCN)C(=O)N[C@@H](CCCCN)C(=O)N[C@@H](CC(C)C)C(=O)N[C@@H](CC(C)C)C(=O)N[C@@H](CCCCN)C(=O)N[C@@H](CCC(N)=O)C(=O)N[C@@H](CCC(=O)O)C(=O)N[C@@H](CCCNC(=N)N)C(=O)N[C@@H](CCCCN)C(=O)N[C@@H](CCCNC(=N)N)C(=O)N[C@@H](CCCCN)C(=O)N[C@@H](CCC(=O)O)C(=O)N[C@@H](CCCNC(=N)N)C(=O)N[C@@H](CCC(=O)O)C(=O)N[C@@H](CCCCN)C(=O)N[C@@H](C)C(=O)N[C@@H](CCC(=O)O)C(=O)N[C@@H](CCCCN)C(=O)N[C@@H](C)C(=O)N[C@@H](C)C(=O)N[C@@H](CCCNC(=N)N)C(=O)N[C@H](C(=O)N[C@@H](CC(C)C)C(=O)N[C@@H](CCC(=O)O)C(=O)N[C@@H](CCCNC(=N)N)C(=O)N[C@H](C(N)=O)C(C)C)[C@@H](C)CC)C(=O)O

Biological target: human corticotropin-releasing factor 2α (CRF2 α receptor) (human), Q13324
Assay: cell-based or functional assay

human corticotropin-releasing factor 2α (CRF2 α receptor) (human), Q13324, sequence (Q13324 20-411): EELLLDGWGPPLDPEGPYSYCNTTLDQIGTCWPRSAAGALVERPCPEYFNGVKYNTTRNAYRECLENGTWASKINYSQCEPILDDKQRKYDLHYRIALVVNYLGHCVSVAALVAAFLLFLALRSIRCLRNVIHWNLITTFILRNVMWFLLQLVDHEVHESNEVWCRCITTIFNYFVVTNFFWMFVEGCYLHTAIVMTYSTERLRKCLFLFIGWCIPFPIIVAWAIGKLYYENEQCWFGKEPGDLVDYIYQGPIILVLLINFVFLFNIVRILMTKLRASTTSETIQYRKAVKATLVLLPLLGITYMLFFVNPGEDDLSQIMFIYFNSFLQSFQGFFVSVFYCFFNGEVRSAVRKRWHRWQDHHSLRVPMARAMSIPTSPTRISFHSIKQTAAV

Binder | EC50 [nM], 0% HSA
B1 | 0.16 nM
B2 | 0.12 nM
B3 | 0.01 nM
B4 | 0.01 nM
IVLSLD[dV]PTKLK([γGlu-Palmitoyl])QKLLKQERQRKEREQAEKNVRILERV-NH2 [SEQ ID NO: 32] | 0.01 nM
B5 | 0.01 nM
B6 | 0.14 nM
